The values that follow come from paper PMC5615192 (mBio, 2017).

For data set [1], the target named is T1, HPV58 L1 pentamer (Human papillomavirus type 58 (GenBank …, UniProt P26535)).
T1 construct: also called HPV58p; HPV58 pentamer; source: cloned into pTO-T7
In words: SPR; Biacore 3000; MAb (10 ug/ml) […]; HBS (10 mM HEPES pH 7.4, 150 mM NaCl); […]. The note with it: both partners purified.

For data set [2], the target named is HPV33 KAT L1 VLP (triple mutant K161R, A168S, T308N) (human papillomavirus type 33) (UniProt P06416).
The target of data set [3] is T2, HPV58 L1 VLP D154A (human papillomavirus type 58) (UniProt P26535).
T2 sequence: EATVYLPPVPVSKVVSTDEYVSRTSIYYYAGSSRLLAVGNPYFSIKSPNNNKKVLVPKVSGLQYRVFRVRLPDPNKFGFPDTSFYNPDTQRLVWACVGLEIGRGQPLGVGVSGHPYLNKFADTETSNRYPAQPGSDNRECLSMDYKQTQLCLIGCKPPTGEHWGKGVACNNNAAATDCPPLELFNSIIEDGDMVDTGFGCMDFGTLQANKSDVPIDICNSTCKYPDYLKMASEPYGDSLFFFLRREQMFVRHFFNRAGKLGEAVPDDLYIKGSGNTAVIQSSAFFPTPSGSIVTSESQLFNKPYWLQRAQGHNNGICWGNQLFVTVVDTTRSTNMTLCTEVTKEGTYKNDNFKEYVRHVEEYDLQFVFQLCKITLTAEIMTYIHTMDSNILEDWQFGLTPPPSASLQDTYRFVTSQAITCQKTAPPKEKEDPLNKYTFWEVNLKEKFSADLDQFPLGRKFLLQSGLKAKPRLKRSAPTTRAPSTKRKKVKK
In words: ELISA; indirect ELISA; wells coated with wild-type or mutant VLPs or pentamers (300 ng/well, overnight at 4°C); 2-fold serial dilutions of the antibody, 1 h at 37°C; detected with HRP goat anti-mouse IgG.

Data set [4] deals with T3, HPV58 L1 VLP R161A (human papillomavirus type 58) (UniProt P26535).
T3 sequence: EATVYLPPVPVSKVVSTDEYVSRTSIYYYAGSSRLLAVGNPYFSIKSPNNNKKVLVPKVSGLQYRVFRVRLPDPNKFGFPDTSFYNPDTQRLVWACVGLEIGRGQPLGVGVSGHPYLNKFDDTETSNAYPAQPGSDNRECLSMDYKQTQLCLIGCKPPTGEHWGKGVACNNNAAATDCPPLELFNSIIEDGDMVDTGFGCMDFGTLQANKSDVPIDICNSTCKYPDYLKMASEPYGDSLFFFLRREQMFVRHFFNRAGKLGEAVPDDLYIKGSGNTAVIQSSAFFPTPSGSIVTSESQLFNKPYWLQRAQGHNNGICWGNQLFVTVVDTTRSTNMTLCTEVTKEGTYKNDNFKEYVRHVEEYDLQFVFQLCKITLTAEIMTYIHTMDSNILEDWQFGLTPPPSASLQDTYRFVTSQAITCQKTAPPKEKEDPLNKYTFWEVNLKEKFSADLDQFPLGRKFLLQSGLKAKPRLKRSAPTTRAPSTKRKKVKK
The data set is described as above.

The target of data set [5] is T4, HPV58 L1 VLP N308A (human papillomavirus type 58) (UniProt P26535).
T4 sequence: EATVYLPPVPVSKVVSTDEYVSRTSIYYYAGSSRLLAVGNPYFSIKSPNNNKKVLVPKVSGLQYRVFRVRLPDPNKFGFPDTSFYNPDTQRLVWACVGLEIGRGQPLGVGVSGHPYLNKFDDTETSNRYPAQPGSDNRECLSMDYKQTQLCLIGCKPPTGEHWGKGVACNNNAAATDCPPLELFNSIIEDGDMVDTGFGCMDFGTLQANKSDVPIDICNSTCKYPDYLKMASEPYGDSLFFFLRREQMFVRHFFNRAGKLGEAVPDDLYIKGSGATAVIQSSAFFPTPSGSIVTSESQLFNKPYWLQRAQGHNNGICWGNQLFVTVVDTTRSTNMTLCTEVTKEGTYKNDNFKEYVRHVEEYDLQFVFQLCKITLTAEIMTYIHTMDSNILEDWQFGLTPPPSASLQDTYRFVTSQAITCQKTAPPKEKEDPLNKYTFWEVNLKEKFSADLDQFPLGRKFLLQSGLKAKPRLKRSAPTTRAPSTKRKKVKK
Described as above.

Another data set has as its target T5, HPV58 L1 VLP (human papillomavirus type 58, UniProt P26535 34-524).
T5 chain: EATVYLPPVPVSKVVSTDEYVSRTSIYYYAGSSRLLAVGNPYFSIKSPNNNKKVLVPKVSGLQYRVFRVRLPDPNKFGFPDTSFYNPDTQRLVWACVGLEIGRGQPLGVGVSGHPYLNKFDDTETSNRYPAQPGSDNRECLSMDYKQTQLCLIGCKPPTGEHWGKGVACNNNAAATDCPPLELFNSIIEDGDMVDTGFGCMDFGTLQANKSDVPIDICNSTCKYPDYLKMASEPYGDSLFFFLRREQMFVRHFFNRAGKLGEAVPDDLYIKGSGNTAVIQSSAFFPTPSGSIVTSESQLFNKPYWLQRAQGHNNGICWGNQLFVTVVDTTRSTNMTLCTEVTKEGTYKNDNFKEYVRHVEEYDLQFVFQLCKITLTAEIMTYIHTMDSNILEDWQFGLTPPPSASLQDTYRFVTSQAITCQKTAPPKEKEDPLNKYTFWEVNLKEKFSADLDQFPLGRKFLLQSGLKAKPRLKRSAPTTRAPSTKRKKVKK
In words: ELISA.

Data set [6] deals with T6, HPV58 L1 pentamer (human papillomavirus type 58, UniProt P26535 34-524).
T6 chain: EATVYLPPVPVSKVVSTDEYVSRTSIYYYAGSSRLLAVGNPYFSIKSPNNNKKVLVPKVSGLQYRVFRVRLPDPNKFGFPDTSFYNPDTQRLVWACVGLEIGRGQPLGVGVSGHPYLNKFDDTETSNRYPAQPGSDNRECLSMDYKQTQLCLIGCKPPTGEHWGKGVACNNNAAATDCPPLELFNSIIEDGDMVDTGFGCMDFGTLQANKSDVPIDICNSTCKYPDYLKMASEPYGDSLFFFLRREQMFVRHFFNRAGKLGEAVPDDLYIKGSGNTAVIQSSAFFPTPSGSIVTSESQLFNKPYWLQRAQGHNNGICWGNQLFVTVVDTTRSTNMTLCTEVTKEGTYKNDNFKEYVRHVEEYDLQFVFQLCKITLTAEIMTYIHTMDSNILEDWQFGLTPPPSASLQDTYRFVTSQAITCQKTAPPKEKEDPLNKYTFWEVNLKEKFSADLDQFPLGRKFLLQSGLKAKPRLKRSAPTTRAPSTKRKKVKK
Kind of data set: ELISA.

Data set [7] addresses T7, HPV58 L1 pentamer (human papillomavirus type 58, UniProt P26535).
T7 construct: also called HPV58p; HPV58 pentamer
Kind of data set: crystal structure. The note with it: both partners purified.

The data set “crystal structure” deals with the molecule itself. Kind of data set: crystal structure.
Data set [8] deals with HPV18 TQG L1 VLP (triple mutant T270Q, Q273E, G281D) (human papillomavirus type 18).
Data set [9] has as its target HPV59 L1 pentamer Q270A (human papillomavirus type 59). Kind of data set: ELISA; indirect ELISA; wells coated with wild-type or mutant VLPs or pentamers (300 ng/well, overnight at 4°C); 2-fold serial dilutions of the antibody, 1 h at 37°C; detected with HRP goat anti-mouse IgG.
The target in data set [10] is HPV59 L1 pentamer M267A (human papillomavirus type 59). Described as above.
Another data set deals with T8, HPV59 L1 VLP (human papillomavirus type 59).
T8 chain: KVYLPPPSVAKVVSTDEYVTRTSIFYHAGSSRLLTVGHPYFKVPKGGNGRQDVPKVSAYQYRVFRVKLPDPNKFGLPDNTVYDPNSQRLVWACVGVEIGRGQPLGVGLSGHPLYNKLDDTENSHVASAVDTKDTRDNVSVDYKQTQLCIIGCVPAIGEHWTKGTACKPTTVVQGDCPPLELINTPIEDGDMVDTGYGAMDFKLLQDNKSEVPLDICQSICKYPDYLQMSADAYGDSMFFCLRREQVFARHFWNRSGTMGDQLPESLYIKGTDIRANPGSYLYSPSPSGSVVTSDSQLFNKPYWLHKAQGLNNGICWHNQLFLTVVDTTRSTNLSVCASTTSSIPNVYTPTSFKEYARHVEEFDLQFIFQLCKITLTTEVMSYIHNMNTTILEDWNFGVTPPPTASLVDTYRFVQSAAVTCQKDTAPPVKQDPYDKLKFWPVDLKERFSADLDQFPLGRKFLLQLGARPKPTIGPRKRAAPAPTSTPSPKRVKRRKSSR
In words: ELISA.

Another data set has as its target T9, HPV59 L1 pentamer (human papillomavirus type 59).
T9 chain: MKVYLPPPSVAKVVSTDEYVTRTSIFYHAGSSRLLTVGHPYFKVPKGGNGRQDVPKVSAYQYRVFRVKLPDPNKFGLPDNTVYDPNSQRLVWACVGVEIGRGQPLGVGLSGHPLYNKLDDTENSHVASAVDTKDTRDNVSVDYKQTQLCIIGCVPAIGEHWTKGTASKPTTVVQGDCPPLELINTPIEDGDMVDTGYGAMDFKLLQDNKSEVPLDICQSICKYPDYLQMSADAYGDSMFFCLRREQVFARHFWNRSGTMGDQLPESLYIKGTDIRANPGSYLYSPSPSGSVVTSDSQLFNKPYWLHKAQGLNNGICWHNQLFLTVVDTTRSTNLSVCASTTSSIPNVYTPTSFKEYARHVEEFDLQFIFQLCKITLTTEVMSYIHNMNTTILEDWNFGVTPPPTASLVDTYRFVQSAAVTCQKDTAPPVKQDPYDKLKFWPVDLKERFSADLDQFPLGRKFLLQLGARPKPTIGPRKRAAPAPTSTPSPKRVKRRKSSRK
Kind of data set: ELISA.

B1: MAb A12A3 (antibody, V domains shown)
VH: EVQLQQSGAELVRPGALVKLSCKASGFNIKDYYMHWVKQRPEQGLEWIGWIDPENGKTIYDPRFRGKASITADTSSNTAYLQLSSLTSEDAAVYYCATSNYRYDRSFDYWGQGTTLTVSA
VL: DIQMTQSPSSLFASLGGKVTITCKASQDINKYIAWFQHKPGKGPRLLIHYTFTLQPGIPSRFSGSGSGRDYSFSISNLEPEDIATYYCLQYHNLYTFGGGTKLEIK
notes: also called A12A3 IgG
Take B1: the Ka with HPV58 L1 pentamer [1] is 1.91e+08 M⁻¹. This molecule also showed a Kd with HPV58 L1 pentamer [1] of 5.33 nM. The molecule further gave a koff in the data set with HPV58 L1 pentamer [1] of 0.0004 s⁻¹. Further, in the data set with HPV58 L1 pentamer [1], the kon stood at 78400 M⁻¹ s⁻¹. In addition, the IC50 of neutralisation of the HPV33 KAT PsV mutant in [2] was determined as 4.3 µg/mL. Also, the fold increase of the EC50 against the WT HPV58 VLP worked out at 2 fold in data set [3], 80 fold in [4] and 2 fold in data set [5]. The EC50 with HPV58 L1 VLP came out at 0.0104 µg/mL; in the data set with HPV58 L1 pentamer [6], 0.0085 µg/mL.

B2: A12A3 Fab (Fab, V domains shown)
VH: EVQLQQSGAELVRPGALVKLSCKASGFNIKDYYMHWVKQRPEQGLEWIGWIDPENGKTIYDPRFRGKASITADTSSNTAYLQLSSLTSEDAAVYYCATSNYRYDRSFDYWGQGTTLTVSA
VL: DIQMTQSPSSLFASLGGKVTITCKASQDINKYIAWFQHKPGKGPRLLIHYTFTLQPGIPSRFSGSGSGRDYSFSISNLEPEDIATYYCLQYHNLYTFGGGTKLEIK
notes: also called Fab fragment of A12A3; source: papain digestion of MAb A12A3, purified with DEAE-5PW exchange
In the case of B2, in the data set with HPV58 L1 pentamer [7], the “stoichiometry N” value was 1 Fab per pentamer.

B3: HPV58 L1 pentamer (natural protein)
chain: EATVYLPPVPVSKVVSTDEYVSRTSIYYYAGSSRLLAVGNPYFSIKSPNNNKKVLVPKVSGLQYRVFRVRLPDPNKFGFPDTSFYNPDTQRLVWACVGLEIGRGQPLGVGVSGHPYLNKFDDTETSNRYPAQPGSDNRECLSMDYKQTQLCLIGCKPPTGEHWGKGVACNNNAAATDCPPLELFNSIIEDGDMVDTGFGCMDFGTLQANKSDVPIDICNSTCKYPDYLKMASEPYGDSLFFFLRREQMFVRHFFNRAGKLGEAVPDDLYIKGSGNTAVIQSSAFFPTPSGSIVTSESQLFNKPYWLQRAQGHNNGICWGNQLFVTVVDTTRSTNMTLCTEVTKEGTYKNDNFKEYVRHVEEYDLQFVFQLCKITLTAEIMTYIHTMDSNILEDWQFGLTPPPSASLQDTYRFVTSQAITCQKTAPPKEKEDPLNKYTFWEVNLKEKFSADLDQFPLGRKFLLQSGLKAKPRLKRSAPTTRAPSTKRKKVKK
notes: also called HPV58p; HPV58 pentamer
As for B3, the “stoichiometry N” value in “crystal structure” turned out to be 5.

B4: MAb 28F10 (antibody, V domains shown)
VH: DVKLVESGGGLVKPGGSLKLSCAASGFPFSDYTMSWIRQTPEKRLEWVASISSGGTYTYYPDTVKGRFTISRDNAKNTLYLQMSSLKSEDTAMFYCTRASPYYDYDEGYMDYWGQGTSVTVSS
VL: DVVMTQTPLSLPVSLGDQASISCRSSQSLVHSNGNTYLHWYLQKSGQSPKLLIYKVSNRFSGVPDRFSGSGSGTDFTLKISRVEAEDLGVYFCSQSTHVPFTFGAGTKLELK
B4 registered an IC50 of neutralisation of HPV18 TQG PsVs in data set [8] of 0.0097 µg/mL. The fold increase of the EC50 against the WT HPV59 pentamer came to 20 fold in data set [9] and 10 fold in data set [10]. Besides, the EC50 came to 0.005 µg/mL with HPV59 L1 VLP and 0.0464 µg/mL in the data set with HPV59 L1 pentamer.
